Assay results published in PMC5093408.

Columns and labels:
[1] = target: histone-like HU protein from Spiroplasma melliferum KC3 (Spiroplasma melliferum KC3); test: crystal structure; hanging-drop vapour diffusion at 4 °C; protein 14 mg/ml in 20 mM Tris HCl pH 8.0, 200 mM NaCl, 5% glycerol; reservoir 0.1 M Tris HCl pH 8.0, 35% v/v PEG 400, 5% glycerol; one monomer per asymmetric unit, dimer by a crystallographic twofold axis; 1.4 Å
[2] = target: HUSpm Val17Thr mutant (Spiroplasma melliferum KC3); test: SEC; size-exclusion chromatography of the purified point mutants; conditions not given
[3] = target: HUSpm Asn92Lys mutant (Spiroplasma melliferum KC3); test: as above
[4] = target: HUSpm Phe14Ala mutant (Spiroplasma melliferum KC3); test: as above
[5] = target: HUSpm Phe29Ala mutant (Spiroplasma melliferum KC3); test: as above
[6] = target: HUSpm Lys35Thr mutant (Spiroplasma melliferum KC3); test: as above

“histone-like HU protein from Spiroplasma melliferum KC3 (natural protein)” showed a stoichiometry N [1] of 2.
For HUSpm Val17Thr mutant (natural protein), the stoichiometry N [2] was 2.
HUSpm Asn92Lys mutant (natural protein) was tested, and the stoichiometry N [3] was 2.
With HUSpm Phe14Ala mutant (natural protein) the stoichiometry N [4] was 2.
HUSpm Phe29Ala mutant (natural protein) gave a stoichiometry N [5] of 2.
Substance HUSpm Lys35Thr mutant (natural protein) has a stoichiometry N [6] of 2.
